According to patent US9386938B2, “Methods for collagen imaging” (Collagen Medical, LLC, priority 2005, dated 2016):
Values belong to the compound of their own block, whether it stands above or below them. Bridge positions count the residues as written; N and C are the ends. Square brackets hold non-standard residues; d marks the D form. Ends that are not written are not given here. Glu‑DTPA‑Gd = N-terminal Glu-DTPA-Gd chelate (gadolinium DTPA complex on glutamic acid); bb‑DTPA gadolinium tetramer diacid = not defined here; AEEA = NCCOCCOCC(=O)O

Legend:
[1] = target: T1, rat collagen type I (Rattus norvegicus, UniProt P02454+P02466); assay: Dried collagen assay (DCA), percent bound to dried rat collagen; format: binding
T1 construct: Rat collagen (acid soluble, type I, rat tail); purchased Upstate USA, Inc 08-115; host or cells: rat tail (tissue extract)
T1 sequence (P02454 152-1207 limits assumed): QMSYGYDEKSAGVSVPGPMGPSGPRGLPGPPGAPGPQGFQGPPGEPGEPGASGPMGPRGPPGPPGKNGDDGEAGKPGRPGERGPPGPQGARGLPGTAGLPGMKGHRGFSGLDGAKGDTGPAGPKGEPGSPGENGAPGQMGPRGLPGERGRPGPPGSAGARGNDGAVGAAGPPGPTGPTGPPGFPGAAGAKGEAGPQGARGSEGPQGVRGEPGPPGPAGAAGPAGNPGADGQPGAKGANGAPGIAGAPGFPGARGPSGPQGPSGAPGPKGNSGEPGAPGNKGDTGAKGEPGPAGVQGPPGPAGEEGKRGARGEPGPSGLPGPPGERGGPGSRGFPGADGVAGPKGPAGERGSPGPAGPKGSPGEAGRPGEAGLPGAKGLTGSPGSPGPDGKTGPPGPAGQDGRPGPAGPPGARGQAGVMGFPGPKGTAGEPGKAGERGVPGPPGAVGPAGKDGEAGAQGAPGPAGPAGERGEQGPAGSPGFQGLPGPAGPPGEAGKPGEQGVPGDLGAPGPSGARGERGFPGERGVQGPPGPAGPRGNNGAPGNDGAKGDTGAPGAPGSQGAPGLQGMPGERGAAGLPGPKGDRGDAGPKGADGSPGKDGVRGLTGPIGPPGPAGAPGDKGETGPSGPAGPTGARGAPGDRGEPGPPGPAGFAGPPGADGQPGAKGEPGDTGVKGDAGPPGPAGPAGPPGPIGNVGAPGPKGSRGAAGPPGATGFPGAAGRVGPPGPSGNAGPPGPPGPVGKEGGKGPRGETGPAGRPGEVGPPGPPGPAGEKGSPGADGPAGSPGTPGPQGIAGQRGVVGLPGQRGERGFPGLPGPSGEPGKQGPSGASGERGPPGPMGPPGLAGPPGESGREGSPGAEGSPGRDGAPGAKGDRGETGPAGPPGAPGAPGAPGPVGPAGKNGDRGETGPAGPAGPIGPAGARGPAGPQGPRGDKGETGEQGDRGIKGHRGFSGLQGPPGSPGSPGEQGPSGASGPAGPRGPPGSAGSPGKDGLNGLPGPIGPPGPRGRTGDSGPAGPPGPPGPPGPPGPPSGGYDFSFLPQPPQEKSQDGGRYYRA
T1 sequence (P02466 86-1125 limits assumed): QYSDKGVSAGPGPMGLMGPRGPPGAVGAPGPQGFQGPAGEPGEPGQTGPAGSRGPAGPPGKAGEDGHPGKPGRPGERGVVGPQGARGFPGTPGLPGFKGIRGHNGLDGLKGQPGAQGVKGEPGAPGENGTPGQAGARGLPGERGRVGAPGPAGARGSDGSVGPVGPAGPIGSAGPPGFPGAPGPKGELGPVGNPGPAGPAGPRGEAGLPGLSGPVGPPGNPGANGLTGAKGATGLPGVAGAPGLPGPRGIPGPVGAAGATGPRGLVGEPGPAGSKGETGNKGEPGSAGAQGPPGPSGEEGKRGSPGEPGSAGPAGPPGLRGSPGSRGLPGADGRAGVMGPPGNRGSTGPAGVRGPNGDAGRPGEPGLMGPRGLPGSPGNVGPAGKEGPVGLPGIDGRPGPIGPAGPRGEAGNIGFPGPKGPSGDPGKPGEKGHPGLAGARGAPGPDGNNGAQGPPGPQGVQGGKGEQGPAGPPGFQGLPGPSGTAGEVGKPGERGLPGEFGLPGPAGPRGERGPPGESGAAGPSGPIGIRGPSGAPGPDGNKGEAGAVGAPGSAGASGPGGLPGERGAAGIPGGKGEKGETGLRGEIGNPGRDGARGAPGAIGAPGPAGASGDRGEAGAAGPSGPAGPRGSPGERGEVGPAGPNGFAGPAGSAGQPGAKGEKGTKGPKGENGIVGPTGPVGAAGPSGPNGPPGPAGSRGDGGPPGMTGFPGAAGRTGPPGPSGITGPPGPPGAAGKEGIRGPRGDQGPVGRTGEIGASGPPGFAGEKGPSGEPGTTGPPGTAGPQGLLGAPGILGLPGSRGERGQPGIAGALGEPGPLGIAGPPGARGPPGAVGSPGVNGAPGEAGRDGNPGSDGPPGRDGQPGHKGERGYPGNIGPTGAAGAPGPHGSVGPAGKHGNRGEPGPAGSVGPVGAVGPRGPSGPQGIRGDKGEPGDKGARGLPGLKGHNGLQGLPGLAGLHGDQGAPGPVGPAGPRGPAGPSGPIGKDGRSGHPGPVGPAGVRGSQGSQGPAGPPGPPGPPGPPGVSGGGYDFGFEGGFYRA

[2] = system: perfused Langendorff rat heart; assay: Equilibrium binding to perfused Langendorff rat heart
Experimental: (§1) After deep anesthesia with pentobarbital (80 mg/kg ip), the chest cavity of a male Sprague Dawley rat (300 g) was opened, retracted and the heart was removed immediately and placed in an ice-cold normal Krebs-Henseleit (K-H) solution (NaCl, 118 mM; KCl, 4.7 mM; CaCl2, 2.5 mM; MgSO4, 1.2 mM; KH2PO4, 1.2 mM; NaHCO3, 25 mM; glucose, 5.5 mM). A K-H buffer filled 20 Gauge needle was inserted into the apex of the heart penetrating into the bottom of the chamber. This was attached to a pressure transducer used to record and monitor heart function. Perfusion pressure (˜60 mmHg) was monitored using a second transducer. The heart was perfused at a constant flow rate of 10-12 mL/min with 37° C. Krebs-Henseleit buffer saturated with a mixture of 95% O2 and 5% CO2 gas. The heart was paced at 300 beats/min.
Two peptide test articles, a high collagen binding peptide (SEQ ID NO: 144) and a low collagen binding peptide (SEQ ID NO: 173), are compared to GdDTPA. The appropriate test article was added to the K-H buffer solution to a total concentration of either 3 or 30 μM. Also added to the K-H buffer was a radiotracer analog of each peptide or GdDTPA. For the peptides, the radiotracer was an aliquot of the appropriate 1-125 labeled peptide derivative (see Example 5 for protocol). For GdDTPA, the tracer added was Tc-99m labeled DTPA. The amount of radioactivity added to the buffer solution was 1-5 μCi.
The heart was perfused for a period of 10 minutes and the perfusion solution was recycled through the heart. The total volume of K-H buffer used was 50-60 mL. After 10 min, the heart was removed from the apparatus and any connective tissue was removed. The heart was opened, fluid in the chambers drained, and the interior blotted dry with filter paper. The heart was then weighed and the radioactivity in the heart measured with a Packard Cobra 5003 Gamma Scintillation counter. An aliquot of the K-H buffer was also weighed and counted. Studies were performed at least in duplicate.
The dual peptide gadolinium tetramer (Compound ID 803) was compared to GdDTPA. Compound ID 803 and GdDTPA were added to the K-H buffer solution to a total concentration of 3 μM. Also added to the K-H buffer was a radiotracer analog of Compound ID 803 or GdDTPA. For Compound ID 803, the radiotracer was an aliquot of the In-111 labeled compound. For GdDTPA, the tracer added was Tc-99m labeled DTPA. The amount of radioactivity added to the buffer solution was 1-5 μCi.

[3] = target: T2, human collagen type I (Homo sapiens, UniProt P02452+P08123); assay: Dried collagen assay (DCA), percent bound to dried human collagen; format: binding
T2 construct: Acid soluble human collagen extracted from placenta; purchased Sigma C7774; host or cells: human placenta (tissue extract)
T2 sequence (P02452 162-1218 limits assumed): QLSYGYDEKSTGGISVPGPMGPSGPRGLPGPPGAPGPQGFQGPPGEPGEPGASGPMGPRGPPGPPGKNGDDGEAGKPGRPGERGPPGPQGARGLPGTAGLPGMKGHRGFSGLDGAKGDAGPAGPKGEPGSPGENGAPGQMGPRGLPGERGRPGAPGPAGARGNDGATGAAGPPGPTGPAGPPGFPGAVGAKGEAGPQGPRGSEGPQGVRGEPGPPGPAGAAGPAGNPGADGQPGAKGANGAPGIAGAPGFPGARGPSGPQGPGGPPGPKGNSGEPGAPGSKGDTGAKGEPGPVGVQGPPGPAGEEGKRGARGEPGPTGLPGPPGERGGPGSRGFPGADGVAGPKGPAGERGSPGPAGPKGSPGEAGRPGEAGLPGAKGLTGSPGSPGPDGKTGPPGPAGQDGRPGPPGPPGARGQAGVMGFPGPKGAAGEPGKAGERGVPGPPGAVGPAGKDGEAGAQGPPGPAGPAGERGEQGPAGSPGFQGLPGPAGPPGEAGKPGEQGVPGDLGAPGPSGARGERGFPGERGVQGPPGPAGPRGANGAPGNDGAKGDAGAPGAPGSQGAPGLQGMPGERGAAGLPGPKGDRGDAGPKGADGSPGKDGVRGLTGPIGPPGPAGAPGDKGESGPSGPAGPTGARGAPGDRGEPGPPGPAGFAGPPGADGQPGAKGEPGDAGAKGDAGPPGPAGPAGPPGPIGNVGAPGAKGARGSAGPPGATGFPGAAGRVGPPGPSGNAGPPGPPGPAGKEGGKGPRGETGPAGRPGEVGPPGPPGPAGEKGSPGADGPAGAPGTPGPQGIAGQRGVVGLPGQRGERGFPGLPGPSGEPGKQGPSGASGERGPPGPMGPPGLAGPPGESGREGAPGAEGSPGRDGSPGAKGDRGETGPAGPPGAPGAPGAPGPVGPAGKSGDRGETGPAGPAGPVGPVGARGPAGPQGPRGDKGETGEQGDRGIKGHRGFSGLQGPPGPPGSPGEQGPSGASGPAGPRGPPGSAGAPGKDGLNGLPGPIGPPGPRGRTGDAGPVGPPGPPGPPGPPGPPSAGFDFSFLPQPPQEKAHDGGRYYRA
T2 sequence (P08123 80-1119 limits assumed): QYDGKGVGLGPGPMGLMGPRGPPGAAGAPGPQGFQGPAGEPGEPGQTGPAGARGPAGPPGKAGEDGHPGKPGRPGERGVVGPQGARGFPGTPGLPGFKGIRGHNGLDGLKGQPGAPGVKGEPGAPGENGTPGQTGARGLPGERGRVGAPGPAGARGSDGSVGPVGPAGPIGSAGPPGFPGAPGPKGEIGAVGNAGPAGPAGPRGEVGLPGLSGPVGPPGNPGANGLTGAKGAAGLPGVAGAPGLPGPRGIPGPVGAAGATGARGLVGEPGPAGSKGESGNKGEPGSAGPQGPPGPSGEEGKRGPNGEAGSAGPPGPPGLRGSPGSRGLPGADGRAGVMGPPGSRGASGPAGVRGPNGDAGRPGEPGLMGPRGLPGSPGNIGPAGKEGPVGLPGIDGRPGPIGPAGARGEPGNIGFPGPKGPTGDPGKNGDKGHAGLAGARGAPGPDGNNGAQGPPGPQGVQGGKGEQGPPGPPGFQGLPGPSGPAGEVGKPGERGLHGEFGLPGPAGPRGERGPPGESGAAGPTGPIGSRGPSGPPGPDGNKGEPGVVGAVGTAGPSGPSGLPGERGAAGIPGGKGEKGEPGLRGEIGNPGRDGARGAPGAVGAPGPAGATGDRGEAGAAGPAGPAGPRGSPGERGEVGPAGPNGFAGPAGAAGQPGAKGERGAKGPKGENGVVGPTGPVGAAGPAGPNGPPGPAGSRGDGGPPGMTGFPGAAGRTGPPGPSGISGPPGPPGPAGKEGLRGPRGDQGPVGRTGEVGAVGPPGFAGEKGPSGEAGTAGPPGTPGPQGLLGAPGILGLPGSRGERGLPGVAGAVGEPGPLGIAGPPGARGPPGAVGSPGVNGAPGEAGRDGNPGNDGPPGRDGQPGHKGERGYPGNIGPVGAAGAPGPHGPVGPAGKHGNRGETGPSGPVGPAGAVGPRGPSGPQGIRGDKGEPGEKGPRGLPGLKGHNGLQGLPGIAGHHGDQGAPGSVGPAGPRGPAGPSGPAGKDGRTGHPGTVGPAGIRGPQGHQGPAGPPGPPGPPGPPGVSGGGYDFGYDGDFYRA

[4] = system: perfused Langendorff rat heart; assay: Washout kinetics from perfused Langendorff rat heart; conditions: perfusion with buffer for 10 minutes
Experimental: as §1
A Langendorff rat heart preparation was perfused with K-H buffer at a rate of 10-12 mL/min. A one mL solution containing SEQ ID NO: 144 (300 μM), radiolabeled (I-125) SEQ ID NO: 144 (1-6 μCi), GdDTPA (300 μM), and radiolabeled (Tc-99m) DTPA (5-8 μCi) was infused into the heart at a rate of 1 mL/min. After the infusion was finished, the heart was either removed or perfusion was allowed to continue for an additional 10 minutes and then the heart was removed. The perfusion buffer was not recirculated through the heart. After removal of any connective tissue, the heart was opened, fluid in the chambers drained, and the interior blotted dry with filter paper. The heart was then weighed and the radioactivity in the heart measured with a Packard Cobra 5003 Gamma Scintillation counter. […] An aliquot of the K-H buffer was also weighed and counted. Concentration estimates were decay corrected. Studies were performed at least in duplicate.
A Langendorff rat heart preparation was perfused with K-H buffer at a rate of 10-12 mL/min. […] The heart was then weighed and the radioactivity in the heart measured with a Packard Cobra 5003 Gamma Scintillation counter. […] An aliquot of the K-H buffer was also weighed and counted. […]

[5] = Table 13, TN-10 peptides with -G- linker, alanine scanning
[6] = Table 2, TN-8 peptides, 5 μM peptide, PBS pH 7.4
[7] = Table 15, TN-10 peptides with -G- linker, D-amino acid scanning
[8] = Table 4, TN-10 peptides, 5 μM peptide, PBS pH 7.4
[9] = Table 14, TN-6 peptides, D-amino acid scanning

Compound: 142 (QWTCSADEYTWHCNYE; disulfide 4-13 (inferred); not fully specified (C-terminus)) [compound 142]
- % Collagen Binding Dried Rat [1, 5]: 6%

Compound: CC(C)C[C@H](NC(=O)[C@@H]1CSSC[C@H](NC(=O)[C@H](Cc2c[nH]cn2)NC(=O)[C@H](Cc2c[nH]c3ccccc23)NC(=O)[C@H](CCC(N)=O)NC(=O)CNC(=O)CC[C@H](NC(=O)[C@H](CNC(=O)[C@@H](CN(CCN(CC(=O)O)CC(=O)O)CC(=O)O)N(CC(=O)O)CC(=O)O)NC(=O)[C@@H](CN(CCN(CC(=O)O)CC(=O)O)CC(=O)O)N(CC(=O)O)CC(=O)O)C(=O)NCCCCCCNC(=O)[C@H](CCC(=O)NCC(=O)N[C@@H](CCC(N)=O)C(=O)N[C@@H](Cc2c[nH]c3ccccc23)C(=O)N[C@@H](Cc2c[nH]cn2)C(=O)N[C@H]2CSSC[C@@H](C(=O)N[C@@H](CC(C)C)C(=O)N[C@@H](Cc3ccc(O)cc3)C(=O)NCC(N)=O)NC(=O)[C@H](Cc3ccc(O)cc3)NC(=O)[C@H](Cc3c[nH]cn3)NC(=O)[C@H](Cc3c[nH]cn3)NC(=O)[C@@H]3CCCN3C(=O)[C@H](Cc3ccccc3)NC(=O)[C@H](CO)NC(=O)[C@H]([C@@H](C)O)NC(=O)[C@H]([C@@H](C)O)NC2=O)NC(=O)[C@H](CNC(=O)[C@@H](CN(CCN(CC(=O)O)CC(=O)O)CC(=O)O)N(CC(=O)O)CC(=O)O)NC(=O)[C@@H](CN(CCN(CC(=O)O)CC(=O)O)CC(=O)O)N(CC(=O)O)CC(=O)O)C(=O)N[C@@H]([C@@H](C)O)C(=O)N[C@@H]([C@@H](C)O)C(=O)N[C@@H](CO)C(=O)N[C@@H](Cc2ccccc2)C(=O)N2CCC[C@H]2C(=O)N[C@@H](Cc2c[nH]cn2)C(=O)N[C@@H](Cc2c[nH]cn2)C(=O)N[C@@H](Cc2ccc(O)cc2)C(=O)N1)C(=O)N[C@@H](Cc1ccc(O)cc1)C(=O)NCC(N)=O [Comp ID 803]
- Heart ([2]; 10 min recirculating perfusion, 3 μM in K-H buffer, radiotracer counting): 9.1 ± 1.8 nmol/g
- Heart:Buffer ([2]; 10 min recirculating perfusion, buffer 3.0 μM): 3.02 ± 0.62

Compound: 3 (PWWCHEMPSMCFGF) [compound 3]
- Dried Human Collagen Binding [3, 6]: 2%

Compound: 39 (GWQCSGDASVWNCDWI) [compound 39]
- Dried Human Collagen Binding [3, 8]: 6%

Compound: 38 (GWSCHGDAADWPCQWS) [compound 38]
- Dried Human Collagen Binding [3, 8]: 6%

Compound: 36 (SWSCGGDHNAWKCQYS) [compound 36]
- Dried Human Collagen Binding [3, 8]: 7%

Compound: 2 (WGWCEWAQNNCWNY) [compound 2]
- Dried Human Collagen Binding [3, 6]: 14%

Compound: 130 (WWACQKGRHDWEKCRWL; disulfide 4-14 (inferred); not fully specified (C-terminus)) [compound 130]
- Dried Human Collagen Binding ([3]; Table 11, TN-11 peptides): 32%

Compound: 113 (FSECVWVNAYQCEYF; disulfide 4-12 (inferred); not fully specified (C-terminus)) [compound 113]
- Dried Human Collagen Binding ([3]; Table 8, TN-9 peptides): 3%

Compound: 137 (YHACYQAGCWAW; disulfide 4-9 (inferred); not fully specified (C-terminus)) [compound 137]
- % Collagen Binding Dried Rat ([1]; Table 12, TN-6 peptides, alanine scanning): 7%

Compound: 112 (AKACSVHDEFGCLIS; disulfide 4-12 (inferred); not fully specified (C-terminus)) [compound 112]
- Dried Human Collagen Binding ([3]; Table 8, TN-9 peptides): 9%

Compound: 37 (LWNCHGTDANWKCVLN) [compound 37]
- Dried Human Collagen Binding [3, 8]: 7%

Compound: 65 (KWECVHTKGEWYCETK) [compound 65]
- Dried Human Collagen Binding [3, 8]: 7%

Continued, in another order:

- % Collagen Binding Dried Human [3, 7]: 2%
- % Collagen Binding Dried Rat [1, 7]: 2%
Compound: 176 (QWTCSGDEYTWHCNYE) [compound 176]

- % Collagen Binding Dried Human [3, 7]: 2%
- % Collagen Binding Dried Rat [1, 7]: 4%
Compound: 165 (QWTCSGDEYTWHCNYE) [compound 165]

- % Collagen Binding Dried Human [3, 7]: 5%
Compound: 174 (QWTCSGDEYTWHCNYE) [compound 174]

- % Collagen Binding Dried Rat [1, 7]: 6%
Compound: 171 (QWTCSGDEYTWHCNYE) [compound 171]

- % Collagen Binding Dried Human [3, 7]: 4%
Compound: 167 (QWTCSGDEYTWHCNYE) [compound 167]

- % Collagen Binding Dried Human [3, 7]: 3%
- % Collagen Binding Dried Rat [1, 7]: 2%
Compound: 168 (QWTCSGDEYTWHCNYE) [compound 168]

- % Collagen Binding Dried Human [3, 7]: 2%
- % Collagen Binding Dried Rat [1, 7]: 2%
Compound: 175 (QWTCSGDEYTWHCNYE) [compound 175]

- % Collagen Binding Dried Rat [1, 7]: 4%
Compound: 169 (QWTCSGDEYTWHCNYE) [compound 169]

- % Collagen Binding Dried Human [3, 9]: 7%
Compound: 159 (YHACYQAGCWIW) [compound 159]

- % Collagen Binding Dried Rat [1, 9]: 53%
Compound: 163 (YHACYQAGCWIW) [compound 163]

- heart uptake relative to GdDTPA ([2]; 10 minutes): about 7 times
Compound: Compound ID 803: dual peptide gadolinium tetramer; bb-DTPA tetramer diacid coupled to N-terminus of SEQ ID NO. 264 peptide ({bb‑DTPA gadolinium tetramer diacid}-GQWHCTTSFPHHYCLYG; disulfide 5-14 (inferred); not fully specified (C-terminus); printed as G-Q-W-H-C-T-T-S-F-P-H-H-Y-C-L-Y-G; reading uncertain; also: dual peptide tetramer: two peptide chains on one diacid, Gd chelated) [dual peptide gadolinium tetramer; 264 peptide]
- amount remaining in heart at 10 minutes after infusion relative to 0 minutes post infusion [4]: 54%

- % Collagen Binding Dried Human [3, 7]: 5%
- % Collagen Binding Dried Rat [1, 7]: 4%
Compound: 173 (QWTCSGDEYTWHCNYE) [compound 173]

- % Collagen Binding Dried Human [3, 5]: 5%
Compound: 147 (QWTCSGDEYTAHCNYE; disulfide 4-13 (inferred); not fully specified (C-terminus)) [compound 147]

- % Binding Collagen I Rat ([1]; Table 17, chelate conjugates): 5%
Compound: 190 ({Glu‑DTPA‑Gd-AEEA}-GQWTCSGDEYTWHCNY[dE]-NH2; disulfide 5-14 (inferred); also: gadolinium complex of Glu-DTPA) [compound 190]

- % Collagen Binding Dried Human [3, 7]: 2%
- % Collagen Binding Dried Rat [1, 7]: 3%
Compound: 166 (QWTCSGDEYTWHCNYE) [compound 166]
